Data taken from the supplement of paper PMC12783771.
± gives the standard deviation of the averaged measurements.

B1: library; numbered along this chain (parent)
chain: MNIQIGELAKRTACPVVTIRFYEQEGLLPPPGRSRGNFRLYGEEHVERLQFIRHCRSLDMPLSDVRTLLSYRKRPDQDCGEVNMLLDEHIRQVESRIGALLELKHHLVELREACSGARPAQSCGILQGLSDCVCDTRGTTAHPSD

Assays:
[1] = variants of: B1; assay: sfGFP reporter fluorescence (15 h) (µM FITC); higher = higher leak; details: library round: Round 0; ligand: none
Method in brief: (§1)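 PCR-made linear PbrR templates (Echo-normalized to 5 nM) were expressed in BL21 Star (DE3) extract (PANOx-SP) with pPbrR-sfGFP reporter plasmid and 30 μg/mL GamS. Reactions were 1 μL, Echo-assembled, with 1 µM lead chloride, 30 µM zinc acetate or no metal, incubated 15 hr at 30 °C. Endpoint sfGFP fluorescence (485/528 nm, Synergy Neo2) was converted to µM FITC via standard curves in 50 mM sodium borate pH 8.5. Up to three biological replicates.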

[2] = variants of: B1; assay: sfGFP reporter fluorescence (15 h) (µM FITC); higher = stronger transcriptional activation; details: library round: Round 0
Method in brief: as §1

Variant | sfGFP reporter fluorescence [1] | sfGFP reporter fluorescence ([2]; ligand: 1 µM Pb) | sfGFP reporter fluorescence ([2]; ligand: 30 µM Zn)
N83W | 0.059 ± 0.0031 | 0.0748 ± 0.0042 | 0.0619
N83Y | 0.0594 ± 0.0015 | 0.0762 ± 0.001 | 0.0645 ± 0.0015
M84A | 0.0618 ± 0.0029 | 0.0687 ± 0.0029 | 0.807 ± 0.02
L85A | 0.05864 ± 0.00052 | 0.0559 ± 0.0023 | 0.07183 ± 0.00052
L85C | 0.0607 ± 0.0018 | 0.0577 ± 0.0013 | 0.117 ± 0.0039
L85D | 0.0577 ± 0.0013 | 0.0563 ± 0.0013 | 0.0537 ± 0.0013
L85E | 0.0605 ± 0.0015 | 0.0586 ± 0.0021 | 0.05662 ± 0.00026
L85F | 0.057 ± 0.0029 | 0.0559 ± 0.0013 | 0.0828 ± 0.0021
L85G | 0.0544 ± 0.0023 | 0.0541 ± 0.0013 | 0.0603 ± 0.00078
L85H | 0.0603 ± 0.0018 | 0.05827 ± 0.00052 | 0.0629 ± 0.00078
L85I | 0.0577 ± 0.00078 | 0.06853 ± 0.00052 | 0.6194 ± 0.0057
L85K | 0.0585 ± 0.0029 | 0.0566 ± 0.00078 | 0.0645 ± 0.001
L85M | 0.05754 ± 0.00052 | 0.06945 ± 0.00026 | 0.597 ± 0.017
L85N | 0.0564 ± 0.0021 | 0.0575 ± 0.0015 | 0.0612 ± 0.0015
L85P | 0.057 ± 0.0023 | 0.05809 ± 0.00026 | 0.0555 ± 0.0013
L85Q | 0.0586 ± 0.001 | 0.0581 ± 0.00078 | 0.0658 ± 0.0023
L85R | 0.0596 ± 0.0018 | 0.0577 ± 0.00078 | 0.0652 ± 0.001
L85S | 0.059 ± 0.0021 | 0.059 ± 0.0015 | 0.0627
L85T | 0.0601 ± 0.0015 | 0.057 ± 0.0013 | 0.1118 ± 0.00052
L85V | 0.0585 ± 0.0018 | 0.0594 ± 0.0026 | 0.1479 ± 0.0013
L85W | 0.0618 ± 0.0018 | 0.0597 ± 0.0036 | 0.157 ± 0.013
L85Y | 0.0592 ± 0.0039 | 0.0603 ± 0.00078 | 0.253 ± 0.0096

Variant | sfGFP reporter fluorescence [1] | sfGFP reporter fluorescence ([2]; ligand: 1 µM Pb) | sfGFP reporter fluorescence ([2]; ligand: 30 µM Zn)
L86A | 0.07 ± 0.0015 | 0.0647 ± 0.0018 | 0.0782 ± 0.0018
D87A | 0.0596 ± 0.0049 | 0.0652 ± 0.0015 | 0.393 ± 0.011
E88A | 0.061 ± 0.0034 | 0.0859 ± 0.0091 | 0.965 ± 0.07
H89A | 0.05992 ± 0.00026 | 0.05699 ± 0.00026 | 0.06725 ± 0.00026
H89C | 0.0553 ± 0.0015 | 0.0574 ± 0.0039 | 0.0614 ± 0.0034
H89D | 0.0623 ± 0.0021 | 0.0669 ± 0.0044 | 0.08283 ± 0.00052
H89E | 0.0647 ± 0.0023 | 0.0795 ± 0.0031 | 0.139 ± 0.0023
H89F | 0.0581 ± 0.0039 | 0.0566 ± 0.0039 | 0.063 ± 0.0021
H89G | 0.0559 ± 0.0044 | 0.05443 ± 0.00026 | 0.0577 ± 0.0023
H89I | 0.0539 ± 0.0047 | 0.0537 ± 0.0018 | 0.0594 ± 0.0021
H89K | 0.0601 ± 0.0026 | 0.0599 ± 0.0013 | 0.161 ± 0.0036
H89L | 0.059 ± 0.0026 | 0.0553 ± 0.0021 | 0.0649 ± 0.0042
H89M | 0.061 ± 0.0013 | 0.06359 ± 0.00026 | 0.1426 ± 0.00052
H89N | 0.0597 ± 0.001 | 0.0663 | 0.261 ± 0.015
H89P | 0.0566 ± 0.0029 | 0.05498 ± 0.00052 | 0.0564
H89Q | 0.0645 ± 0.0047 | 0.108 ± 0.0029 | 1.3 ± 0.08
H89R | 0.0685 ± 0.0042 | 0.0936 ± 0.0054 | 0.975 ± 0.017
H89S | 0.0572 ± 0.001 | 0.0579 ± 0.0031 | 0.0627 ± 0.001
H89T | 0.0614 ± 0.00078 | 0.0579 ± 0.0021 | 0.0588 ± 0.0054
H89V | 0.0592 ± 0.0034 | 0.0575 ± 0.0021 | 0.05681 ± 0.00052
H89W | 0.0607 ± 0.0023 | 0.0585 ± 0.00078 | 0.06084 ± 0.00052
H89Y | 0.0596 ± 0.0018 | 0.0574 ± 0.0018 | 0.0566 ± 0.0023

Variant | sfGFP reporter fluorescence [1] | sfGFP reporter fluorescence ([2]; ligand: 1 µM Pb) | sfGFP reporter fluorescence ([2]; ligand: 30 µM Zn)
I90A | 0.06249 ± 0.00026 | 0.0792 ± 0.0031 | 0.521 ± 0.0044
I90C | 0.0592 ± 0.0018 | 0.0656 ± 0.00052 | 0.568 ± 0.012
I90D | 0.0568 ± 0.0047 | 0.0561 ± 0.0015 | 0.085 ± 0.0057
I90E | 0.0579 ± 0.0042 | 0.05791 ± 0.00052 | 0.0977 ± 0.0018
I90F | 0.0566 ± 0.0054 | 0.063 ± 0.0026 | 0.339 ± 0.033
I90G | 0.0535 ± 0.0031 | 0.0577 ± 0.00078 | 0.222 ± 0.0086
I90H | 0.0619 ± 0.0036 | 0.0898 ± 0.0021 | 0.755 ± 0.0078
I90K | 0.0621 ± 0.0023 | 0.099 ± 0.0047 | 0.85 ± 0.061
I90L | 0.0559 ± 0.0029 | 0.0583 ± 0.0015 | 0.3539 ± 0.0034
I90M | 0.0588 ± 0.0018 | 0.0625 ± 0.0018 | 0.384 ± 0.013
I90N | 0.05717 ± 0.00052 | 0.0601 ± 0.0036 | 0.279 ± 0.012
I90P | 0.0574 ± 0.0029 | 0.0616 ± 0.0015 | 0.151 ± 0.0047
I90Q | 0.05974 ± 0.00052 | 0.0737 ± 0.0042 | 0.637 ± 0.052
I90R | 0.0658 ± 0.0049 | 0.125 | 0.97 ± 0.025
I90S | 0.0601 ± 0.0031 | 0.0671 ± 0.0036 | 0.384 ± 0.0091
I90T | 0.0608 ± 0.0021 | 0.07953 ± 0.00052 | 0.595 ± 0.007
I90V | 0.059 ± 0.0036 | 0.064 ± 0.00078 | 0.583 ± 0.015
I90W | 0.0585 ± 0.0023 | 0.0619 ± 0.001 | 0.272 ± 0.0062
I90Y | 0.0608 ± 0.0026 | 0.108 ± 0.0023 | 0.9855 ± 0.0052
R91A | 0.0618 ± 0.00078 | 0.0724 ± 0.0029 | 0.6942 ± 0.0015
Q92A | 0.0592 ± 0.0013 | 0.063 ± 0.0026 | 0.421 ± 0.042
V93A | 0.0585 ± 0.0013 | 0.0579 ± 0.0031 | 0.128 ± 0.0062

Variant | sfGFP reporter fluorescence [1] | sfGFP reporter fluorescence ([2]; ligand: 1 µM Pb) | sfGFP reporter fluorescence ([2]; ligand: 30 µM Zn)
E94A | 0.0738 ± 0.0044 | 0.0867 ± 0.0065 | 0.333 ± 0.015
E94C | 0.0645 ± 0.0021 | 0.115 ± 0.011 | 0.946 ± 0.18
E94D | 0.0579 ± 0.0052 | 0.0623 | 0.32 ± 0.013
E94F | 0.0563 ± 0.0044 | 0.0579 ± 0.001 | 0.177 ± 0.006
E94G | 0.0553 ± 0.0036 | 0.0656 ± 0.0031 | 0.52721 ± 0.00026
E94H | 0.0592 ± 0.0029 | 0.0632 ± 0.0023 | 0.344 ± 0.021
E94I | 0.0555 ± 0.0034 | 0.08008 ± 0.00026 | 0.714 ± 0.013
E94K | 0.0612 ± 0.0026 | 0.0793 ± 0.0034 | 0.824 ± 0.043
E94L | 0.0579 ± 0.0021 | 0.0698 ± 0.0075 | 0.583 ± 0.006
E94M | 0.0581 ± 0.0018 | 0.0726 ± 0.0047 | 0.598 ± 0.031
E94N | 0.0607 ± 0.0013 | 0.0755 ± 0.0047 | 0.659 ± 0.026
E94P | 0.0535 ± 0.0026 | 0.0533 ± 0.0023 | 0.05571 ± 0.00052
E94Q | 0.0632 ± 0.0013 | 0.0856 ± 0.008 | 1.02 ± 0.07
E94R | 0.0597 ± 0.0052 | 0.0803 ± 0.0031 | 0.722 ± 0.032
E94S | 0.0674 ± 0.0036 | 0.132 ± 0.0031 | 1.51 ± 0.013
E94T | 0.0673 ± 0.0029 | 0.108 ± 0.03 | 1.27 ± 0.29
E94V | 0.059 ± 0.0042 | 0.0847 ± 0.0052 | 0.739 ± 0.052
E94W | 0.0577 ± 0.0039 | 0.05516 ± 0.00026 | 0.143 ± 0.0054
E94Y | 0.0577 ± 0.0034 | 0.0553 ± 0.0047 | 0.153 ± 0.0047
S95A | 0.0625 ± 0.0013 | 0.0759 ± 0.0062 | 0.797 ± 0.063
R96A | 0.0564 | 0.07495 ± 0.00026 | 0.294 ± 0.0083
I97A | 0.0663 ± 0.0021 | 0.133 ± 0.0015 | 1.138 ± 0.007
